Experimental data: US20190315842A1 (DUKE UNIVERSITY, published 2019)
“And” between values parts separate entries of the source, which are not always exact repeats. Equal entries are not always repeated. Where no end group is shown, it is not given here. The star is where a group is joined. Biotin = O=C1N[C@H]2[C@H](CS[C@H]2CCCCC(=O)*)N1

T1: systemic lupus erythematosus autoantigen SSB (UniProt P05455 1-408, limits assumed)
T1 sequence (looked up): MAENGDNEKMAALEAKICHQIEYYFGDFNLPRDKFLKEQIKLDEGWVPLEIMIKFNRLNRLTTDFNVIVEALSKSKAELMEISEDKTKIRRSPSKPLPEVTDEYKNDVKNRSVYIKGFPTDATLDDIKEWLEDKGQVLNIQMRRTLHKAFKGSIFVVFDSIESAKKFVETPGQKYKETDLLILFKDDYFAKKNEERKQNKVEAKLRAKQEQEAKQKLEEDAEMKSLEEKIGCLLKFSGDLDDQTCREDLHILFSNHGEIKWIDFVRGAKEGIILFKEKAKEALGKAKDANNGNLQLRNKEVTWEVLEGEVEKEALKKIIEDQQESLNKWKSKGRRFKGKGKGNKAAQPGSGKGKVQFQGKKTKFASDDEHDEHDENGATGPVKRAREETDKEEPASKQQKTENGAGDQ

T2: centromere B (CentB) (UniProt P07199 2-599)
T2 sequence (looked up): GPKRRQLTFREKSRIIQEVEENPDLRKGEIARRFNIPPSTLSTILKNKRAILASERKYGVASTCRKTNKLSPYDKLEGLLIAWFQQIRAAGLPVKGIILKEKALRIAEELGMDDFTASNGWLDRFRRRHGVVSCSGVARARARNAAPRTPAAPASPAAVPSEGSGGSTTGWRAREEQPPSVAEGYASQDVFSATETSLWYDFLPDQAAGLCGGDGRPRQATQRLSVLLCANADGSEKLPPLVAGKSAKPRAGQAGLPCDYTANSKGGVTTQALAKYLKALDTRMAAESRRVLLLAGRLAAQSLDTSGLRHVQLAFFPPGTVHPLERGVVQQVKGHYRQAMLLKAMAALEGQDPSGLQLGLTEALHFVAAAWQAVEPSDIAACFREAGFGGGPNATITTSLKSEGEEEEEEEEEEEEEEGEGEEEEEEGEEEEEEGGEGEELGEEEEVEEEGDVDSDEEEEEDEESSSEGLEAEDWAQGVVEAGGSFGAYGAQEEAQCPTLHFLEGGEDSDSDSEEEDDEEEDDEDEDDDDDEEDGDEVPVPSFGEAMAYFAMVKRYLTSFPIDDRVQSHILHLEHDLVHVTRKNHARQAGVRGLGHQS

T3: reduced SCR19-20 (human CFH short consensus repeat domains 19 and 20, reduced) (human, UniProt P08603 1107-1231, disulfides reduced with TCEP or reducing SDS-PAGE)
T3 construct: domain: SCR19-20; Same construct as m3, reduced
T3 sequence (looked up): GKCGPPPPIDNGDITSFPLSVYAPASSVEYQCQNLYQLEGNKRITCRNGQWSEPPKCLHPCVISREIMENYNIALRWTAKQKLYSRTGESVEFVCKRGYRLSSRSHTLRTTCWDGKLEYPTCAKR

T4: GPPPPIDNGDITSFP(GGGK-biotin)
T4 construct: also called biotinylated 15-mer peptide; biotinylated 19-mer
T4 peptide: GPPPPIDNGDITSFPGGGK(Biotin)

T5: 15-mer peptide GPPPPIDNGDITSFP (SEQ ID NO: 114) (human)
T5 construct: Immobilized for SPR; also called parent peptide
T5 peptide: GPPPPIDNGDITSFP


Key:
[1] = target: T6, Complement Factor H (CFH) protein, full-length (human, UniProt P08603 19-1231); assay: immunoblot, SDS-PAGE under non-reducing conditions, anti-human IgG-HRP, chemiluminescence; lane numbers as in Table 10
T6 construct: also called full-length CFH; native CFH

[2] = target: T1, systemic lupus erythematosus …; assay: AtheNA Multi-Lyte ANA, Ab at 6.25 ug/ml;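 also: monoclonal antibodies screened for reactivity against a panel of nuclear autoantigens, with an anti-HIV and an anti-RSV monoclonal antibody serving as controls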
Method: (§1) All 7 mAbs were tested against the AtheNA Multi-Lyte panel of autoantigens. The AtheNA Multi-Lyte ANA test for a panel of nuclear antigens: systemic lupus erythematosus autoantigens SSA and SSB, sphingomyelin (Sm), ribonucleoprotein (RNP), sclerosis autoantigen (Scl-70), histidine-tRNA ligase (Jo-1), double-stranded DNA (dsDNA), centromere B (CentB), and histones. 4e10 (Anti HIV, NIH AIDS Reagent Program) and SYNAGIS® (anti-RSV monoclonal antibody palivizumab; “Synagis”) were used a controls.

centromere B (CentB) [3] = target: T2, centromere B (CentB); assay: AtheNA Multi-Lyte ANA, Ab at 6.25 ug/ml;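 also: monoclonal antibodies screened for reactivity against a panel of nuclear autoantigens, with an anti-HIV and an anti-RSV monoclonal antibody serving as controls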
Method: as §1

[4] = target: T1, systemic lupus erythematosus …; assay: AtheNA Multi-Lyte ANA, Ab at 12.5 ug/ml;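 also: monoclonal antibodies screened for binding to a panel of nuclear autoantigens (SSA, SSB, Sm, RNP, Scl-70, Jo-1, dsDNA, CentB, histones), with anti-HIV and anti-RSV antibodies as controls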
Method: as §1

centromere B (CentB) [5] = target: T2, centromere B (CentB); assay: AtheNA Multi-Lyte ANA, Ab at 12.5 ug/ml;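 also: monoclonal antibodies screened for binding to a panel of nuclear autoantigens (SSA, SSB, Sm, RNP, Scl-70, Jo-1, dsDNA, CentB, histones), with anti-HIV and anti-RSV antibodies as controls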
Method: as §1

[6] = target: T7, reduced form of Complement Factor H (CFH), treated with TCEP (human, UniProt P08603 19-1231, disulfides reduced with 10 mM TCEP); assay: immunoblot, SDS-PAGE under reducing conditions, anti-human IgG-HRP, chemiluminescence; lane numbers as in Table 10
T7 construct: also called reduced CFH; reduced form of CFH

[7] = target: T3, reduced SCR19-20 (human CFH short …); assay: as above
[8] = target: T1, systemic lupus erythematosus …; assay: AtheNA Multi-Lyte ANA, Ab at 50 ug/ml;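 also: monoclonal antibodies probed against a nuclear autoantigen panel (SSA, SSB, Sm, RNP, Scl-70, Jo-1, dsDNA, CentB, histones), with anti-HIV 4E10 and palivizumab as control antibodies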
centromere B (CentB) [9] = target: T2, centromere B (CentB); assay: AtheNA Multi-Lyte ANA, Ab at 50 ug/ml;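 also: monoclonal antibodies probed against a nuclear autoantigen panel (SSA, SSB, Sm, RNP, Scl-70, Jo-1, dsDNA, CentB, histones), with anti-HIV 4E10 and palivizumab as control antibodies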
[10] = target: T1, systemic lupus erythematosus …; assay: AtheNA Multi-Lyte ANA, Ab at 25 ug/ml
Method: as §1

[11] = target: T4, GPPPPIDNGDITSFP(GGGK-biotin); assay: ELISA: biotinylated peptide captured on immobilized Neutravidin, antibody at 0.5 µg/ml, anti-human IgG-HRP/ABTS, OD 405 nm
Method: After washing, recombinant human monoclonal antibodies were added to the wells at 0.5 μg/ml and incubated for 2 hr at room temperature. The wells were washed and incubated with goat anti-human IgG-gamma horseradish peroxidase conjugate at a 1:1000 dilution. After further washing, bound antibody was detected with 2,2′-azino-bis (3-ethylbenzthiazoline-6-sulfonic acid)(ABTS)/hydrogen peroxide and the absorbance measured at 405 nm.

[12] = target: T5, 15-mer peptide GPPPPIDNGDITSFP (SEQ ID …); assay: SPR (BIAcore), mAb at 25, 50 or 100 nM over immobilized 15-mer peptide
centromere B (CentB) [13] = target: T2, centromere B (CentB); assay: AtheNA Multi-Lyte ANA, Ab at 25 ug/ml
Method: as §1

[14] = target: T6, Complement Factor H (CFH) protein, …; assay: immunoblot, SDS-PAGE under non-reducing conditions, antibody at 0.5 µg/ml, anti-human IgG-HRP, chemiluminescence; lane numbers as in Table 10
[15] = target: T7, reduced form of Complement Factor H …; assay: immunoblot, SDS-PAGE under reducing conditions, antibody at 0.5 µg/ml, anti-human IgG-HRP, chemiluminescence; lane numbers as in Table 10

Row | binding result [1] | AtheNA signal [2] | AtheNA signal (centromere B (CentB) [3]) | AtheNA signal [4] | AtheNA signal (centromere B (CentB) [5]) | binding result [6] | binding result [7] | AtheNA signal [8] | AtheNA signal (centromere B (CentB) [9]) | AtheNA signal [10] | binding result [11] | Kd [12] | koff [12] | kon [12] | AtheNA signal (centromere B (CentB) [13]) | binding result [14] | binding result [15] | Binder
1 | no binding (tested: 0.5 µg/ml) | 1 | 1 | 5 | 2 | no binding (tested: 0.5 µg/ml) | no binding (tested: 0.5 µg/ml) | 8 | 3 |  |  |  |  |  |  |  |  | Ab7962/293i (antibody, V domains shown, Recombinant human antibody with IgG1 heavy chain backbone and kappa light chain constant (IgM in the donor B cell); they begin at LVESGGG and MTQSL; also called clone 27; pH007962/pK005996) VH: LVESGGGLVQPGGSLRLSCAASGFTFSSYEMNWVRQAPGKGLEWVSYISSSGSTIYYADSVKGRFTISRDNAKNSLYLQMNSLRAEDTAVYYCARVEQLAPSPYMDVWGKGTTVTVSS VL: MTQSLDSLTVSLGERATINCKSSQSLLYTSNNKNYLAWYQQKSGQPPKLLIYWASIRDSGVPDRFSGSGSATDFTLTINNLQAEDVAVYFCQQYYKTPLTFGGGTKVEVR
2 |  | 7 |  | 12 |  |  |  | 9 |  | 8 | binds | ~2.5 pM and 2.46 pM | 5.56e-07 s⁻¹ | 226000 M⁻¹ s⁻¹ |  |  |  | Ab7968 (antibody, IgG1, V domains shown, Recombinant human antibody with IgG1 heavy chain backbone and kappa light chain constant; they begin at LVESGGG and MTQSP; also called mAb 7968; mAb7968) VH: LVESGGGVVQPGRSLRLSCAASGFTFSRYGMHWVRQAPGKGLEWVAVMSYDGSTKYYADSVKGRFAISRDNPKNTLFLQMNSLRPDDTAVYYCAKGGAAAAVMDVWGKGTTVTVSS VL: MTQSPDSLTVSLGERATISCKSSQRLLYSSNNKNYLAWYQQKPGQPPKLLMYWASTRESGVPDRFSGSGSGTDFSLTISSLQAEDVAVYYCQQYYNPPWTFGQGTKVEVK
3 |  |  | 2 |  | 2 |  |  |  | 4 |  | binds |  |  |  | 2 | binds | binds | Ab7957/293i (antibody, IgG1, V domains shown, Recombinant human antibody with IgG1 heavy chain backbone and kappa light chain constant; they begin at LVESGGG and MTQSP; also called Ab7957i; mAb 7957) VH: LVESGGGVVPPGKSLRLSCAASGFTFSLYGIHWVRQAPGKGLEWVAVISYDGNTKYYTDSVKGRFTISRDNAKNTIYLQMNSLRLDDTAVYYCAKGAANSATFDFWGRGTMVTVSS VL: MTQSPDSLTLSLGERATINCRSSRTVLYRSNNKNYLAWYQHKPGQPPKLLMSWASTRETGVPDRFSGSGSGTHFTLTITSLQPEDVAVYYCQQYYSPPWTFGQGTKVEIR
